This sample holds only a part of the variants without activity.
Key:
biotinyl-Trp-oxazolone = experiment: self-aminoacylation, catalytic enhancement (BWO) (fold over background); higher = more active; k-Seq, kA / k0A0; sequences stand for … in GGGAAUGGAUCCACAUCUACGAAUUC…UUCACUGCAGACUUGACGAAGCUG
Summary of the method: (§1)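 Working in 50 μL HEPES/NaCl/KCl/MgCl2/CaCl2 buffer with 5% acetonitrile at pH 6.9–7.0, mutagenized RNA pools (0.43 μM; 21-nt variable region) were reacted with 2–1250 μM of each biotinyl-aminoacyl-oxazolone for 90 minutes at room temperature. Streptavidin capture followed, with quantification by triplicate qPCR and Illumina sequencing. Catalytic enhancement is reported as median kA over the uncatalyzed rate, the low-activity peak of a bimodal Gaussian fit to the data.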

biotinyl-Met-oxazolone = experiment: self-aminoacylation, catalytic enhancement (BMO) (fold over background); higher = more active; k-Seq, kA / k0A0; sequences stand for … in GGGAAUGGAUCCACAUCUACGAAUUC…UUCACUGCAGACUUGACGAAGCUG
Summary of the method: as §1

biotinyl-Ile-oxazolone = experiment: self-aminoacylation, catalytic enhancement (BIO) (fold over background); higher = more active; k-Seq, kA / k0A0; sequences stand for … in GGGAAUGGAUCCACAUCUACGAAUUC…UUCACUGCAGACUUGACGAAGCUG
Summary of the method: as §1

biotinyl-Phe-oxazolone = experiment: self-aminoacylation, catalytic enhancement (BFO) (fold over background); higher = more active; k-Seq, kA / k0A0; sequences stand for … in GGGAAUGGAUCCACAUCUACGAAUUC…UUCACUGCAGACUUGACGAAGCUG
Summary of the method: as §1

biotinyl-Val-oxazolone = experiment: self-aminoacylation, catalytic enhancement (BVO) (fold over background); higher = more active; k-Seq, kA / k0A0; sequences stand for … in GGGAAUGGAUCCACAUCUACGAAUUC…UUCACUGCAGACUUGACGAAGCUG
Summary of the method: as §1

biotinyl-Leu-oxazolone = experiment: self-aminoacylation, catalytic enhancement (BLO) (fold over background); higher = more active; k-Seq, kA / k0A0; sequences stand for … in GGGAAUGGAUCCACAUCUACGAAUUC…UUCACUGCAGACUUGACGAAGCUG
Summary of the method: as §1

Sequence | self-aminoacylation (biotinyl-Trp-oxazolone) | self-aminoacylation (biotinyl-Met-oxazolone) | self-aminoacylation (biotinyl-Ile-oxazolone) | self-aminoacylation (biotinyl-Phe-oxazolone) | self-aminoacylation (biotinyl-Val-oxazolone) | self-aminoacylation (biotinyl-Leu-oxazolone)
AUUACCCUGGUGAUCGAGAGA [Fam2.1 aminoacylation ribozyme variant] | 0.417 | 1.24 | 1.33 | 0.65 | 0.92 | 0.908
AUUACCCUGGUGAUCGAGUGU [Fam2.1 aminoacylation ribozyme variant] | 2.96 | 2.12 | 1.51 | 5.19 | 1.57 | 2.31
AUUACCCUGGUGAUCGAUUGA [Fam2.1 aminoacylation ribozyme variant] | 0.834 | 1.39 | 1.03 | 0.845 | 0.859 | 1.09
AUUACCCUGGUGGUCGAGUGA [Fam2.1 aminoacylation ribozyme variant] | 1.83 | 2.28 | 1.47 | 12.8 | 1.61 | 1.95
AUUACCCUGGUUAUCGAGGGA [Fam2.1 aminoacylation ribozyme variant] | 1.79 | 1.4 | 1.55 | 1.16 | 1.16 | 0.955
AUUACCCUGGUUAUCUAGUGA [Fam2.1 aminoacylation ribozyme variant] | 17.6 | 14.4 | 5.78 | 93.5 | 6.4 | 15.3
AUUACCCUGUACAUCGAGUGA [Fam2.1 aminoacylation ribozyme variant] | 13.2 | 12.5 | 5.18 | 71.1 | 6.19 | 11.6
AUUACCCUGUCCAUCGAGUGA [Fam2.1 aminoacylation ribozyme variant] | 14.8 | 10.6 | 5.63 | 70.4 | 5.38 | 11.3
AUUACCCUGUUCAUCGAGUUA [Fam2.1 aminoacylation ribozyme variant] | 0.616 | 1.13 | 1.19 | 0.909 | 1.12 | 1.12
AUUACCCUGUUCAUCGUGUGA [Fam2.1 aminoacylation ribozyme variant] | 8.71 | 6.29 | 3.1 | 43.7 | 3.04 | 6.24
AUUACCCUGUUCAUGGAGUGA [Fam2.1 aminoacylation ribozyme variant] | 11.8 | 11.1 | 5.12 | 62.8 | 5.28 | 11.4
AUUACCCUGUUCAUUGAGUGA [Fam2.1 aminoacylation ribozyme variant] | 16.3 | 13.8 | 5.73 | 83.6 | 5.4 | 12.7
AUUACCCUUCUCAUCGAGUGA [Fam2.1 aminoacylation ribozyme variant] | 9.57 | 6.6 | 3.51 | 30.8 | 3.65 | 6.53
AUUACCCUUGCCAUCGAGUGA [Fam2.1 aminoacylation ribozyme variant] | 7.05 | 6.18 | 3.09 | 35.2 | 3.18 | 5.63
AUUACCCUUGUCAUCGAAUGA [Fam2.1 aminoacylation ribozyme variant] | 0.552 | 0.839 | 0.946 | 0.805 | 1.09 | 0.89
AUUACCCUUGUCAUCGCGUGA [Fam2.1 aminoacylation ribozyme variant] | 14.3 | 10.7 | 5.26 | 85.5 | 5.9 | 13.6
AUUACCCUUGUCAUUGAGUGA [Fam2.1 aminoacylation ribozyme variant] | 10.6 | 8.1 | 4.11 | 34 | 4.34 | 8.5
AUUACCGUAGUCAUCGAGUGA [Fam2.1 aminoacylation ribozyme variant] | 7.23 | 4.79 | 2.94 | 26 | 3.22 | 5.83
AUUACCGUGGUCACCGAGUGA [Fam2.1 aminoacylation ribozyme variant] | 2.95 | 3.87 | 2.39 | 9.08 | 2.83 | 3.65
AUUACCGUGGUCAUAGAGUGA [Fam2.1 aminoacylation ribozyme variant] | 7.99 | 7.8 | 3.67 | 35.7 | 3.97 | 6.95
AUUACCGUGGUCAUCGCGUGA [Fam2.1 aminoacylation ribozyme variant] | 22.2 | 17.7 | 8.94 | 140 | 11 | 21.5
AUUACCGUGGUCAUCUAGUGA [Fam2.1 aminoacylation ribozyme variant] | 7.82 | 6.98 | 3.29 | 31.2 | 3.82 | 6.26
AUUACCGUGGUCAUUGAGUGA [Fam2.1 aminoacylation ribozyme variant] | 7.1 | 5.36 | 3.37 | 28.2 | 3.21 | 6
AUUACCUUAGUCAUCGAGUGA [Fam2.1 aminoacylation ribozyme variant] | 5.48 | 4.41 | 2.71 | 14.8 | 2.59 | 4.62
AUUACCUUGGGCAUCGAGUGA [Fam2.1 aminoacylation ribozyme variant] | 6.65 | 5.33 | 2.87 | 17.4 | 2.91 | 5.27
AUUACCUUGGUCAUAGAGUGA [Fam2.1 aminoacylation ribozyme variant] | 9.04 | 6.82 | 3.58 | 25.4 | 3.69 | 7.24

Sequence | self-aminoacylation (biotinyl-Trp-oxazolone) | self-aminoacylation (biotinyl-Met-oxazolone) | self-aminoacylation (biotinyl-Ile-oxazolone) | self-aminoacylation (biotinyl-Phe-oxazolone) | self-aminoacylation (biotinyl-Val-oxazolone) | self-aminoacylation (biotinyl-Leu-oxazolone)
AUUACCUUGGUCAUCAAGUGA [Fam2.1 aminoacylation ribozyme variant] | 4.02 | 3.32 | 1.97 | 3.79 | 1.92 | 3.54
AUUACCUUGGUCAUCGAGUGU [Fam2.1 aminoacylation ribozyme variant] | 3.8 | 3.47 | 2.19 | 3.39 | 2.37 | 3.59
AUUACCUUGGUCAUCGAUUGA [Fam2.1 aminoacylation ribozyme variant] | 0.601 | 0.916 | 0.907 | 0.71 | 0.824 | 0.855
AUUACCUUGGUCAUCGUGUGA [Fam2.1 aminoacylation ribozyme variant] | 3.57 | 2.55 | 1.53 | 16.2 | 1.57 | 2.71
AUUACCUUGGUGAUCGAGUGA [Fam2.1 aminoacylation ribozyme variant] | 5.81 | 4.39 | 2.25 | 19.7 | 2.32 | 4.39
AUUACCUUGUUCAUCGAGUGA [Fam2.1 aminoacylation ribozyme variant] | 8.47 | 6.95 | 3.4 | 26.1 | 3.95 | 6.6
AUUACGCUGAUCAUCGAGUGA [Fam2.1 aminoacylation ribozyme variant] | 6.11 | 5.61 | 3.16 | 15 | 3.36 | 5.8
AUUACGCUGGUCAACGAGUGA [Fam2.1 aminoacylation ribozyme variant] | 3.71 | 3.33 | 2.42 | 5.51 | 2.71 | 3
AUUACGCUGGUCAGCGAGUGA [Fam2.1 aminoacylation ribozyme variant] | 4.4 | 4.57 | 3.34 | 21.2 | 2.4 | 4.3
AUUACGCUGGUCAUCGAGUUA [Fam2.1 aminoacylation ribozyme variant] | 0.917 | 1.54 | 1.28 | 0.893 | 1.43 | 1.41
AUUACGCUGGUCAUCGAUUGA [Fam2.1 aminoacylation ribozyme variant] | 1.41 | 1.29 | 1.18 | 0.858 | 1.18 | 1.24
AUUACGCUGGUCGUCGAGUGA [Fam2.1 aminoacylation ribozyme variant] | 1.37 | 1.25 | 1.37 | 4.94 | 1.36 | 1.49
AUUACGUUGGUCAUCGAGUGA [Fam2.1 aminoacylation ribozyme variant] | 5.9 | 4.23 | 3.1 | 11.7 | 3.18 | 4.86
AUUACUCUGCUCAUCGAGUGA [Fam2.1 aminoacylation ribozyme variant] | 1.92 | 1.58 | 1.29 | 2.12 | 1.3 | 1.57
AUUACUCUGGACAUCGAGUGA [Fam2.1 aminoacylation ribozyme variant] | 8.33 | 5.55 | 2.93 | 30.9 | 2.83 | 6.1
AUUACUCUGGUCACCGAGUGA [Fam2.1 aminoacylation ribozyme variant] | 9.08 | 7.28 | 3.28 | 44.4 | 3.27 | 8.45
AUUACUCUGGUCAUCGAGUAA [Fam2.1 aminoacylation ribozyme variant] | 2.27 | 2.23 | 2.21 | 1.42 | 1.79 | 1.92
AUUACUCUGGUCAUCUAGUGA [Fam2.1 aminoacylation ribozyme variant] | 11.4 | 9.64 | 4.55 | 42.8 | 4.34 | 9.74
AUUACUCUGGUCGUCGAGUGA [Fam2.1 aminoacylation ribozyme variant] | 0.657 | 1.16 | 1.08 | 0.488 | 1.16 | 1.31
AUUACUCUGGUGAUCGAGUGA [Fam2.1 aminoacylation ribozyme variant] | 6.39 | 5.34 | 2.92 | 21.8 | 2.57 | 5.72
AUUACUCUGUUCAUCGAGUGA [Fam2.1 aminoacylation ribozyme variant] | 3.94 | 2.88 | 1.9 | 3.86 | 1.94 | 3.42
AUUACUCUUGUCAUCGAGUGA [Fam2.1 aminoacylation ribozyme variant] | 7.7 | 6.03 | 3.58 | 22 | 3.45 | 6.33
AUUAGCCUAGUCAUCGAGUGA [Fam2.1 aminoacylation ribozyme variant] | 3.09 | 2.65 | 2.47 | 4.14 | 2.18 | 2.79
AUUAGCCUGGACAUCGAGUGA [Fam2.1 aminoacylation ribozyme variant] | 8.52 | 8.78 | 3.91 | 45.3 | 3.53 | 9.56
AUUAGCCUGGUCAUCGAGCGA [Fam2.1 aminoacylation ribozyme variant] | 4.5 | 2.52 | 2.55 | 2.04 | 2.53 | 2.59

Reference: the supplement of paper PMC9233669
